# Where no end group is shown, it is not given here. [ ]: non-standard residue; d: D form. pY = N[C@@H](Cc1ccc(OP(=O)(O)O)cc1)C(=O)O; TOTD membrane = not defined here; pS = N[C@@H](COP(=O)(O)O)C(=O)O
# Target: T1, His6-OSR1 CCT (human OSR1 433-527) (human, UniProt O95747 433-527)
# Assay: peptide or protein array
# T1 sequence (O95747 433-527): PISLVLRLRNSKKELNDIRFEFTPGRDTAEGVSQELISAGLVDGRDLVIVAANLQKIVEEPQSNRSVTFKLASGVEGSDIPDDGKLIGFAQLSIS
# Chain of His6-OSR1 CCT (human OSR1 433-527) (from UniProt O95747 433-527) (domain or fragment) (O95747 433-527): as above
row,binding result,Molecule
1,binds,Ac-QLVGRFQVTSSKE-{TOTD membrane} (reading uncertain) [hWNK4 1012-1024 wild type peptide QLVGRFQVTSSKE on the peptide array membrane]

# Target: His6-SPAK CCT (mouse SPAK 459-556) (mouse) (UniProt Q9Z1W9)
# Assay: fluorescence polarisation
Ki,fold decrease in affinity relative to wild type,Molecule
7.2 µM,,hWNK4 1012-1024 wild type peptide …
,3.1 fold,hWNK1 1253-1265 R1257A peptide …
,11 fold,"SAGHAFIVSPVPE [hWNK1 1253-1265 peptide, arginines replaced with histidine-alanine]"
4.2 µM,,"SAGKKFIVSPVPE [hWNK1 1253-1265 peptide, arginines replaced with lysine-lysine]"
,1.5 fold,"SAGARFIVSPVPE [hWNK1 1253-1265 peptide, first arginine of RRF to alanine]"
,7 fold,"SAGHHFIVSPVPE [hWNK1 1253-1265 peptide, arginines replaced with histidine-histidine]"

# Target: NH3+-NLVGRF-[DAP-FAM]-VSPVPE-COO- fluorescent probe peptide (human)
# Assay: fluorescence polarisation
Kd,fold decrease in affinity relative to wild type,Molecule
0.67 µM,,His6-SPAK CCT (mouse SPAK 459-556) (from UniProt Q9Z1W9 459-556) (domain or fragment)
,50 fold,purified SPAK CCT domain D477Q (domain or fragment)
1.5 µM,,His6-OSR1 CCT (human OSR1 433-527) (from UniProt O95747 433-527) (domain or fragment)

# Target: His6-SPAK CCT (mouse SPAK 459-556) (mouse) (UniProt Q9Z1W9)
# Assay: fluorescence polarisation
# Remark: another data set of the same source
fold decrease in affinity relative to wild type,Ki,Molecule
2.5 fold,,SAGRRFIV[pS]PVPE [hWNK1 1253-1265 peptide phosphorylated on serine at the +3 position]
,2.5 µM,H-SAGRRFIVSPVPE-OH [hWNK1 1253-1265 wild type peptide NH3+-…-COO-]

# Target: T1, His6-OSR1 CCT (human OSR1 433-527)
# Assay: fluorescence polarisation
binding result,fold decrease in affinity relative to wild type,Ki,Molecule
binds,,,LRRRNFKVMI[pY]QD [p-Tyr156 Cavin1 peptide (Cavin1 146-158)]
,~2.5 fold,,SAGRRFIV[pS]PVPE [hWNK1 1253-1265 peptide phosphorylated on serine at the +3 position]
binds,,,"SAGRRFIVSAAPE [hWNK1 1253-1265 peptide, proline and valine to alanines at +4/+5]"
,,5.1 µM,H-SAGRRFIVSPVPE-OH [hWNK1 1253-1265 wild type peptide NH3+-SAGRRFIVSPVPE-COO-]
,11 fold,,"SAGHAFIVSPVPE [hWNK1 1253-1265 peptide, arginines replaced with histidine-alanine]"
,~3.1 fold,,SAGRAFIVSPVPE [hWNK1 1253-1265 R1257A peptide SAGRAFIVSPVPE]
binds,,,"SAGAKFIVSPVPE [hWNK1 1253-1265 peptide, arginines replaced with alanine-lysine]"
binds,,,"SAAARFIVSPVPE [hWNK1 1253-1265 peptide, -3 glycine and -2 arginine to alanine-alanine]"
binds,,,"SAGKAFIVSPVPE [hWNK1 1253-1265 peptide, arginines replaced with lysine-alanine]"
binds,,,"SAVARFIVSPVPE [hWNK1 1253-1265 peptide, -3 glycine and -2 arginine to valine-alanine]"
binds,,,"SAGAHFIVSPVPE [hWNK1 1253-1265 peptide, arginines replaced with alanine-histidine]"
,,16.3 µM,"SAGKKFIVSPVPE [hWNK1 1253-1265 peptide, arginines replaced with lysine-lysine]"
,~1.5 fold,,"SAGARFIVSPVPE [hWNK1 1253-1265 peptide, first arginine of RRF to alanine]"
,~7 fold,,"SAGHHFIVSPVPE [hWNK1 1253-1265 peptide, arginines replaced with histidine-histidine]"
binds,,,LRRRNFKVMIYQD [Cavin1 146-158 motif peptide]
,,12.9 µM,QLVGRFQVTSSKE [hWNK4 1012-1024 wild type peptide QLVGRFQVTSSKE]
binds,,,"QLVGRFQITSSKE [hWNK4 1012-1024 peptide, valine to isoleucine at the +2 position]"
binds,,,"QLVGRFAVTSSKE [hWNK4 1012-1024 peptide, glutamine to alanine at the +1 position]"
binds,,,"QLVGRFQVASSKE [hWNK4 1012-1024 peptide, threonine to alanine at the +3 position]"
binds,,,"QLVGRFQLTSSKE [hWNK4 1012-1024 peptide, valine to leucine at the +2 position]"
binds,,,"QLVSRFQVTSSKE [hWNK4 1012-1024 peptide, glycine to serine at the -2 position]"
